From patent US11697680B2, “Anti-GP73 antibodies and immunoconjugates” (CUREAB GMBH, priority 2016, dated 2023)

Assays:
[1] = target: T1, Furin cleavage of recombinant GP73-HIS (Homo sapiens, UniProt Q8NBJ4); assay: Furin cleavage of GP73-HIS depending on antibody binding (capture ELISA); assay type: biochemical; conditions: 3 U and 1.5 U of Furin; 2 hours at 30° C.
T1 construct: purchased Biolegend
T1 sequence (Q8NBJ4 36-401 limits assumed): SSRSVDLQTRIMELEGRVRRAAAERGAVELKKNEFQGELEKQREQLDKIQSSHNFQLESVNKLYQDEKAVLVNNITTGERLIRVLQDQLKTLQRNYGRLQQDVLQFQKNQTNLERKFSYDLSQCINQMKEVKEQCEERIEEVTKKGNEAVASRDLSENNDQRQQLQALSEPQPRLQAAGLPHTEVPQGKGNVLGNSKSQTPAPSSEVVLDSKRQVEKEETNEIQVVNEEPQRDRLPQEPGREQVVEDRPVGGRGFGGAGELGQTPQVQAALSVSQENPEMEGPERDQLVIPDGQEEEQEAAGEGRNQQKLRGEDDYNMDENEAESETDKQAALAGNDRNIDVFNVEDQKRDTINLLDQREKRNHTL
Source text: Measurements of Furin cleavage of GP73 using a range from 0 units to 3 units of Furin are depicted.
Testing of Furin cleavage exploits the fact that antibodies G2-1 and G2-2 bind GP73 N-terminal of or at the furin cleavage site 56R whereas recombinant GP73 with C-terminal HIS tag (GP73-HIS) is detected by anti HIS antibody at the C-terminus of GP73. Plate bound anti human IgG can capture G2-1 or G2-2, which binds GP73-HIS. If furin cleavage occurs in a setting where G2-1 or G2-2 have already bound to GP73-HIS, only N-terminal part of GP73 will reside at the G2 antibodies. In contrast, if furin cleavage is hindered by G2 antibodies, GP73-HIS can be detected by an anti HIS antibody.
Furin cleavage was carried out in 1.5 ml tubes. To test if G2 antibodies can hinder furin cleavage recombinant GOLPH-HIS protein (Biolegend) and G2-2 or G2-1 was incubated for 2 hours in 100 mM HEPES and 1 mM CaCl2 buffer pH 7.5 to allow antibody binding to GP73. […]
From each reaction 2×100 ul were transferred to wells of a 96 well plate that had been coated over night with anti human IgG and was blocked with 1% gelatine in PBS. After one hour incubation at room temperature the plate was washed, incubated with anti HIS-hrp antibody for one hour, washed again, incubated with a chromogenic substrate (TMB Amersham) to detect peroxidase, stopped and read at 450 nm.

peptide AA 36-55 of GP73 = peptide AA 36-55 of GP73 (Homo sapiens, UniProt Q8NBJ4); assay: Competition peptide ELISA with HRP-labeled antibodies; assay type: binding; conditions: unlabeled competing antibody at high concentration; binding antibody G2-1-HRP
Procedure: A peptide ELISA was performed using horse radish peroxidase labeled G2-1 (G2-1-HRP) or G2-2 (G2-2-HRP) as binding antibodies and G2-1 or G2-2 as competing antibodies. […] Binding to peptide AA 36-55 of GP73 served as positive control (filled circle), negative control was binding to an unrelated peptide (filled diamond) as described in Example 5.
ELISA was carried out in 96 well plates coated overnight with biotinylated peptide and blocked with 2% gelatine. Horse radish peroxidase labeled antibodies G2-1 (G2-1-HRP) or G2-2 (G2-2-HRP) were applied and incubated for 1.5 hours. For competition testing non labeled G2-1 or G2-2 was added at high concentration. For pH dependent binding the antibodies were applied in phosphate buffer pH 4.4, 5.4, 6.4 or 7.4. After extensive washing a chromogenic substrate (TMB Amersham) was added to detect peroxidase. The reaction was stopped and absorbance was read at 450 nm.

B1: G2-2: scFv clone with human IgG1 heavy and human Igk light constant regions; VH/VL SEQ ID NO: 2 and 3; binds rGP73 AA 36-55 (antibody, V domains shown)
VH: EVQLLQSGGGVVQPGRSLRLSCAASGFTFSSYGMSWVRQAPGKGLEWVAVISYDGSNKYYADSVKGRFTISRDNSKNTLYLQMNSLRAEDTAVYYCAREGSAGMDVWGQGTTVTVSS
VL: DIQMTQPSSLSASPGASASLTCTLRSDISVGFHRIYWYQQKPGSPPQYLLRYKSDSDKQQGSGVPSRFSGSKDASANAGILLISGLQSDDEADYYCVIWHTSGVVFGGGTKVEIK
modifications: human IgG1 and Igk constant regions not cited; G2-2 heavy chain variable region (VH); G2-2 light chain variable region (VL)
[1]
  Furin cleavage of GP73 after preincubation with antibody: significant reduction in Furin cleavage
Peptide AA 36-55 of GP73
  competition with G2-1-HRP for peptide binding: Competitive inhibition
